Data published in US20240166688A1 (NIBEC, published 2024).
Blank lines part the entries; values can stand above or below the binder they belong to.

Target: HDAC5 protein (Abcam, MA, USA)
Experiment: SPR, Biacore T200; HDAC5 amine-coupled to CM5 chip, peptide as analyte, 1:1 model

Sequence of HDAC5 protein (Abcam, MA, USA) (chain, as listed by the source): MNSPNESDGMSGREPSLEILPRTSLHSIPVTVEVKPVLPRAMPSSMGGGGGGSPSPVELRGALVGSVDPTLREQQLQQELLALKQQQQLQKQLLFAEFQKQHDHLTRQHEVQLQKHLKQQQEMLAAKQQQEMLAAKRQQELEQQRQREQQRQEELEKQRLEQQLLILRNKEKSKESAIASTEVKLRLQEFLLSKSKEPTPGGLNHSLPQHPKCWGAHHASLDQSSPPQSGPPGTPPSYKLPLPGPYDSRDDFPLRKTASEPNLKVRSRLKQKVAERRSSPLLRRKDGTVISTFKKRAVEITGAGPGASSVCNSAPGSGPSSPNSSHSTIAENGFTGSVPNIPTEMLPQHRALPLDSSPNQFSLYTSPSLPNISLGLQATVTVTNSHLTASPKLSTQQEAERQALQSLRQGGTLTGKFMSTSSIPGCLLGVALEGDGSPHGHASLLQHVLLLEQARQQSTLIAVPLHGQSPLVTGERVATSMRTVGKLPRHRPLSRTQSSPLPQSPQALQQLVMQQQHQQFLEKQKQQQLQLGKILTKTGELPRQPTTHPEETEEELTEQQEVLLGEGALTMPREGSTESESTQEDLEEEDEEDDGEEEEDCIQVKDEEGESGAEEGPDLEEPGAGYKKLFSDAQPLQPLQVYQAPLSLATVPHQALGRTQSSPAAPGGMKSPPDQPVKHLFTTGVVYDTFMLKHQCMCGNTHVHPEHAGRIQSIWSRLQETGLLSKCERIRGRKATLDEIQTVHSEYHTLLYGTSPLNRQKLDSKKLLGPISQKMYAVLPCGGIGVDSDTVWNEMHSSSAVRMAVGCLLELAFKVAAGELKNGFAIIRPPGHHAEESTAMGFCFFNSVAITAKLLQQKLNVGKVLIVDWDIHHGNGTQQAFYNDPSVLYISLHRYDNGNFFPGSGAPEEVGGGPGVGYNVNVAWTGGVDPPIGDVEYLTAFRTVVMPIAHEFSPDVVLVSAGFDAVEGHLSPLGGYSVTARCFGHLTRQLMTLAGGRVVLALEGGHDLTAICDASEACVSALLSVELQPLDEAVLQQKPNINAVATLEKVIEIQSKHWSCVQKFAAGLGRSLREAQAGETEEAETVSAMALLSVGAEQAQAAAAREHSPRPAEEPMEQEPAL

B5: peptide of SEQ ID NO: 4 (M3) (peptide)
peptide: GKCSTRGRKMMRRKK
- Kd: 940 nM
- koff: 0.0679 s⁻¹
- kon: 72200 M⁻¹ s⁻¹

B6: peptide of SEQ ID NO: 2 (M1) (peptide)
peptide: GKCSTRGRKCMRRKK
- Kd: 924 nM
- koff: 0.0687 s⁻¹
- kon: 74400 M⁻¹ s⁻¹

B7: peptide of SEQ ID NO: 7 (M6) (peptide)
peptide: GKMSTRGRKCMRRKK
- Kd: 704 nM
- koff: 0.0476 s⁻¹
- kon: 67500 M⁻¹ s⁻¹

B8: peptide of SEQ ID NO: 3 (M2) (peptide)
peptide: GKCSTRGRKMCRRKK
- Kd: 725 nM
- koff: 0.0595 s⁻¹
- kon: 82100 M⁻¹ s⁻¹

These reach a lower Kd. Values come first.

- Kd: 676 nM
- koff: 0.0726 s⁻¹
- kon: 108000 M⁻¹ s⁻¹
B2: peptide of SEQ ID NO: 1 (peptide)
peptide: GKCSTRGRKCCRRKK
notes: also called AIP

- Kd: 468 nM
- koff: 0.0309 s⁻¹
- kon: 65900 M⁻¹ s⁻¹
B3: peptide of SEQ ID NO: 5 (M4) (peptide)
peptide: GKMSTRGRKCCRRKK

- Kd: 444 nM
- koff: 0.0446 s⁻¹
- kon: 100000 M⁻¹ s⁻¹
B4: peptide of SEQ ID NO: 6 (M5) (peptide)
peptide: GKMSTRGRKMCRRKK

- Kd: 86.8 nM
- koff: 0.00478 s⁻¹
- kon: 55000 M⁻¹ s⁻¹
B1: peptide of SEQ ID NO: 8 (M7) (peptide)
peptide: GKMSTRGRKMMRRKK
